From the nanobody polyreactivity screen of Harvey et al. (2022)

Assay: yeast display, Sf9 membrane polyspecificity reagent, FACS + sequencing; frameworks hold sequencing errors
How it was run: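 After 36–48 hours of galactose induction, yeast (Saccharomyces cerevisiae BJ5465) displaying a synthetic nanobody library were stained at 4 °C for 1 hour with 10% biotinylated, detergent-solubilized Sf9 membrane reagent. Streptavidin microbeads enriched the stained cells before FACS sorting into low and high (top ~1%) gates on anti-HA and streptavidin fluorescence. Each clone's polyreactivity label reflects its gate of origin.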

| Sequence | polyreactivity (PSR sort gate) |
| --- | --- |
| QVPLVEKGGGLVQAGGSLRLSCAASGFTIGYYAMGWYRQAPGKERELVAASTWRGDTTYYADSVKGRFTISRDNAKNTVYLQMNSLKPEDTAVYYCAAEYEVYFDWSYYYWGQGTQVTVSS | high polyreactivity |
| QVQLVESGGGLVQAGGSLRLSCAASGGTFAYYAMGWYRQAPGKERELVAVISRRGTSTYYADSVKGRFTISRDNAKNTVYLQMNSLKPEDTAVYYCNARTWDHPYGYWGQGTQVTVSS | high polyreactivity |
| QVQLVESGGGLVQAGGSLRLSCAASGSIFWYNAMGWYRQAAGKERELVAAIRWRGGSTYYADSVKGRFTISRDNEKNTVYLQMNSLKPEDTAVYYFAAQVYVSQLYTSYYYWGQGTQVTVSS | high polyreactivity |
| QVQLQESGGGLVQAGGSLRLSCAASGTISVAAYMAWYRQAPGKEREYVASIGYGATTYYADSEKGTFTISRDNAKNTVYLQMNSLKPGDTAVYYCAVDRSPQYRYLYYWGQGTQVTVCS | high polyreactivity |
| QVQLVESGGGLVQAGGSLRLSCAASGRIFGKYAMGWYRQAPGKERELVAVITSRDGRTYYADSVKGRFTISRDNAKNTVYLQMNSLKPEDTAVYYCAADLVNGHYYYWGQGTQVTVSS | low polyreactivity |
| QVQLVESGGGLVQAGGSLRLSCAASGFTFAVYVMGWYRQAPGKERELVAAISRSGGSTYYADSVKGRFTISRDNAKNTVYLQMNSLKPEDTAVYYCNARVWAKYDYWGQGTQVTVSS | high polyreactivity |
| QVQLVESGGGLVQAGGSLRLSCAASGLTFYNARGWYRQAPGKERELVAAISGTVSRTYYADSVKGRFTISRDNAKNTVYLEMNSLKPEDTAVYYCAVRWYGKYSGVRYYYWGQGTQVNVSS | high polyreactivity |
| QVQLVESGGGLVQAGGSLRLSCAASGSTFRYYAMGWYRQAPGKERELVAAITRGDSTNYADSVKGRFTISRDNAKNTVYLQMNSLKPEDTAVYYCNAGDGPDEEYDYWGQGTQVTVSS | low polyreactivity |
| QVKLVESGGGLVQAGGSLRLSCAAYGSTFTRNAMGWYRQAPGKERQLVAAITSGGSTNYADSVKGRFTISRDNAKNTVYLEMNSLKPEDTAVYYCAAGLGRYFYSWRYLYSIFDYWGQGTQVTVSS | low polyreactivity |
| QVQLVESGGGLVQAGGSLRLSCAASGFIFGSNAMGWYRQAPGKERELVAAISRSGGSTYYADTVKGRFTISRDNAKNTVYLQMNSLKPEDTAVYYCNVDLWPFVYSWWSYDYWGQGTQVTVSS | high polyreactivity |
| QVQLVESGGGLVQAGVSLRLSCAASGITFPYYTMGCYRQAPGKERELVAAITSGGSTNYADSVKGRFTISRDNAKNTVYLQMNSLKPEDTAVYYCDGVLWLFDYWGQGTQVTVSS | high polyreactivity |
| QVQLVESGGCLVQAGGSLRLSCAASGFTFVRNAMGWYRQAPGKDRELVAAISGSGGRTYYADSVKGRFTISRDNAKNTVYLQMNSVKPEDTAVYYCNTASAYEYEYWGQGSQVTVSS | high polyreactivity |
| QDQLVESGGGLVQAGGSLRLSCAASGSIFADYVMGWYRQAPGKERELVAAITRRGRTYYADSVKGRFTISRDNAKNNVYLQMNSLKPEDTAVYYCAKVAYGKIDSWGQGTQVTVSS | low polyreactivity |
| QVQLVESGGGLVQAGGSLRLSCASSGIIFVYYAMGWYRQAPGKERELVAVITESGVSTYYADSVKGRFTISRDNAKNTVYLQMNSLKPEDTAVYYCNRDYPYIWHKGARYWHENDYWGQGTQVTVSS | low polyreactivity |
| QVQLVESGGGLVQAGGSLRLSCAASGSTFGYNDMGWYRQAHGKERELVAVIDSGGSTNYADSVKGRFTISRDNAKNTVYLQMNSLKPEDTAVYYCAADRDKGNGADVWYGYDYWGQGTQVTVSS | low polyreactivity |
| QVQLVESGGGLVQAGGSLRLSCAASGSIFAFYAMGWYRQSPGKERELVAAISYNGGSTYYADSVKVRFTLSRDNAKNTVYLQMNSLEPEDTAVYYCAAYHFSAPSEYDYWGQGTQVTVSS | low polyreactivity |
| QVQLVESGGGLVQAGGSLRLSCAASGGIFYHYTMGWYRQAPGKERELVASIRGSGGRTYYADSVKGRFTLSRDNAKNTVDLQMNSLKPEDTAVYYCNARGSWYQPTYDYWGQGTQVTVST | high polyreactivity |
| QVQLVESGGGLVQAGGSLRLSCAASGRTFYYYAMGWHRQAPGKERELVARIRSGGSTNYADSVKGRFTISRDNAKNTVYLQMNSLKPEDTAVYYCAAVRPPTPSRRREDYWGQGTQVTVSS | low polyreactivity |
| QVQLVESGGGLVQAGGSLRLSCAASGSTFIRNAMGWYRQAPGKERELVAAISGSGVSTRYADSVKGRFTISRDNAKNTVYLQMNSLKPEDTAVYYCAKRKQYPYTMGYWGQGTQVTVSS | high polyreactivity |
| QVQLVESGGGLVQAGGSLRLSCAASGFIFWYYAMGWSRQAPGKERELVAAISGSGGRTYYADSVKGRFTISRDNAKNTVYLQLNSLKPEDTAVYYCNARRAAYYHRARELDYWGEGTQVTVSS | high polyreactivity |
| QVQLVESGGGLVQAGGSLRLSCAASGFTKFYNAMGWYRQAPGKERELVAAITARGGGTYYADSVKGRFTFSRDNAKNTVYLLMNSLKPEDTAVYYCAKQPIIYWQSSRFDYWGQGTQVTVSS | low polyreactivity |
